Data: publication PMC5173319, “Crenactin forms actin-like double helical filaments regulated by arcadin-2” (eLife, 2016)

How the values were obtained:
[1] = target: Pyrobaculum calidifontis arcadin-1 (Pyrobaculum calidifontis); test: AUC; sedimentation equilibrium, arcadin-1 at 49.8, 99.5 and 199 µM, 7800, 11800 and 15,000 rpm, 20°C, 25 mM Tris-HCl pH 8.0, 100 mM NaCl, 1 mM EDTA; idealised single-species model
[2] = target: Pyrobaculum calidifontis crenactin (Pyrobaculum calidifontis) (UniProt A3MWN5); test: SPR; crenactin immobilised by amide coupling on CM5 chip (~2300 RU), Biacore T200, PBS-0.005% Tween 20, 20°C; arcadin-1 in 1:3 dilution series from 36.7 µM; equilibrium response fitted to a single site model
Pyrobaculum calidifontis crenactin (Pyrobaculum calidifontis), sequence (A3MWN5 whole entry): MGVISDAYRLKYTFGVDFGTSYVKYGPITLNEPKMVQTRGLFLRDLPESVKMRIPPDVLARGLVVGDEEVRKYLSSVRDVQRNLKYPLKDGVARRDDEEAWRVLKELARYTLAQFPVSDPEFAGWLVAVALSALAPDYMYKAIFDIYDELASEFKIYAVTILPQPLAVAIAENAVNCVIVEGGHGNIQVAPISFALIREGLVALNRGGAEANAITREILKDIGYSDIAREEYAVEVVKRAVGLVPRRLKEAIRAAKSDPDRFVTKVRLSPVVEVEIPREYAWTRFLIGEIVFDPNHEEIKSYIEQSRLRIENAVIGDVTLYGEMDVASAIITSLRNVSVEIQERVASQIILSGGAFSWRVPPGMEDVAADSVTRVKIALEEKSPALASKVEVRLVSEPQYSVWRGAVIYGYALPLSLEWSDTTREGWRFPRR

stoichiometry N [1]: 8
Kd [2]: 15 µM
Substance: Pyrobaculum calidifontis arcadin-1 (natural protein)
